Molecular target: EccD5 (Mycobacterium xenopi ESX-5 type VII secretion system) (Mycobacterium xenopi)
Test: cryo-EM structure; purified ESX-5 complex (void peak fraction) in 20 mM tris (pH 8), 150 mM NaCl; C6 global map 3.4 Å and locally refined map of the cytosolic part 3.0 Å; de novo atomic model of the transmembrane and membrane-adjacent cytoplasmic regions

“EccD5 (Mycobacterium xenopi ESX-5 type VII secretion system) (natural protein)” was tested, and the stoichiometry N was 2.

Reference: PMC8232910
